Results: article PMC3808318, “A type III ACC synthase, ACS7, is involved in root gravitropism in Arabidopsis thaliana” (Journal of Experimental Botany, 2013)
Blank lines part the entries; values can stand above or below the molecule they belong to.

Legend:
14-3-3ω = 14-3-3ω (UniProt Q01525); test: quartz crystal microbalance (QCM); settings: reference: untreated 6His-SUMO-ACS7; sites S216,T296,S299
[1] = biological target: T1, AtCDPK16 (G-AtCDPK16-6His) (Arabidopsis thaliana, UniProt Q7XJR9); test: in vitro kinase assay, […] autoradiography; type: biochemical; settings: 50 μM ATP spiked with [γ-32P]ATP, labelled compound; 6His-SUMO-AtACS7 as phosphoacceptor; Ca2+ dependent (shown with peptides P5-2 and P11-2); room temperature, 15 min
T1 construct: gene CPK16; recombinant from E. coli, N-terminal G (GST) and C-terminal 6His tags, about 100 kDa with tags
T1 sequence (Q7XJR9 1-571): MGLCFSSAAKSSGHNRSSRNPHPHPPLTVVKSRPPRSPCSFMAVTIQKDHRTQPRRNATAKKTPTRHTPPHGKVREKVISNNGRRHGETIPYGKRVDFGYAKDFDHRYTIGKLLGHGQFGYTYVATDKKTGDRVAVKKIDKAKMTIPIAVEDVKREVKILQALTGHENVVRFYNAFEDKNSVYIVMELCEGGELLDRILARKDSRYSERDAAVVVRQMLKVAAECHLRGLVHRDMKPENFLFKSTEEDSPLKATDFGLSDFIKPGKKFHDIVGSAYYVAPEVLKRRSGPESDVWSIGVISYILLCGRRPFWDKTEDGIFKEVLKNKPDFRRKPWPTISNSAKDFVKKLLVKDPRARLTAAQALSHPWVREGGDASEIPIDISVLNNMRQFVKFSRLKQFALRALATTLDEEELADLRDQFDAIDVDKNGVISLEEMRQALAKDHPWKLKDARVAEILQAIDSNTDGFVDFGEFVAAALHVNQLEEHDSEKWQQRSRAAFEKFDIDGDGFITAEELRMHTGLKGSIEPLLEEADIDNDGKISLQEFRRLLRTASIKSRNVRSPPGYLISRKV

[2] = biological target: T2, AtCDPK16 (G-AtCDPK16-6His) (Arabidopsis thaliana, UniProt Q7XJR9, S274A/S541A); test: in vitro kinase assay, […] autoradiography; type: biochemical; settings: 50 μM ATP spiked with [γ-32P]ATP, labelled compound; AtACS7 fusion protein and peptides as phosphoacceptors; room temperature, 15 min
T2 construct: gene CPK16; recombinant from E. coli, N-terminal G (GST) and C-terminal 6His tags, about 100 kDa with tags
T2 sequence (Q7XJR9 1-571 S274A/S541A): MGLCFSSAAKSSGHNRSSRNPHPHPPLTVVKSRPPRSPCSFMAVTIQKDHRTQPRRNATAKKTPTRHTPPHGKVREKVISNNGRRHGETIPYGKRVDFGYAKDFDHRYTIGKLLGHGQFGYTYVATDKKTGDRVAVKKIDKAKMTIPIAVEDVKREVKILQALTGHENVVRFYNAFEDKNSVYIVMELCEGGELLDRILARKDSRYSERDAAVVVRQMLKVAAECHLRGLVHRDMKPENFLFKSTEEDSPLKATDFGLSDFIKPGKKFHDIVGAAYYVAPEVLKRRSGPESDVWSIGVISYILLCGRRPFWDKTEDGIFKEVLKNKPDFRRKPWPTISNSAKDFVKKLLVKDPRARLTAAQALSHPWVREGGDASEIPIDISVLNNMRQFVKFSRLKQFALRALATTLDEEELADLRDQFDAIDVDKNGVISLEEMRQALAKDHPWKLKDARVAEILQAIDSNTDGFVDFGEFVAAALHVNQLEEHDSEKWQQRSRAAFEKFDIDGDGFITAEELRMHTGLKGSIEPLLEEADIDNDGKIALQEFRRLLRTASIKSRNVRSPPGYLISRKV

[3] = biological target: T3, 6His-SUMO–AtACS7 recombinant protein (Arabidopsis thaliana, UniProt Q9STR4 1-447); test: quartz crystal microbalance (QCM); AFFINIX QN μ, PBS buffer; results: G-14-3-3ω coated on the sensor and 6His-SUMO–ACS7 injected (the methods tell the reverse order); settings: both partners purified
T3 construct: 1-aminocyclopropane-1-carboxylate synthase 7 (AtACS7), Arabidopsis thaliana; called the full-length ACS7 recombinant protein; The printed name puts 6His and SUMO before ACS7; also called 6His-SUMO–ACS7; SUMO–ACS7; source: E. coli, purified (Ni-NTA)
T3 sequence (looked up): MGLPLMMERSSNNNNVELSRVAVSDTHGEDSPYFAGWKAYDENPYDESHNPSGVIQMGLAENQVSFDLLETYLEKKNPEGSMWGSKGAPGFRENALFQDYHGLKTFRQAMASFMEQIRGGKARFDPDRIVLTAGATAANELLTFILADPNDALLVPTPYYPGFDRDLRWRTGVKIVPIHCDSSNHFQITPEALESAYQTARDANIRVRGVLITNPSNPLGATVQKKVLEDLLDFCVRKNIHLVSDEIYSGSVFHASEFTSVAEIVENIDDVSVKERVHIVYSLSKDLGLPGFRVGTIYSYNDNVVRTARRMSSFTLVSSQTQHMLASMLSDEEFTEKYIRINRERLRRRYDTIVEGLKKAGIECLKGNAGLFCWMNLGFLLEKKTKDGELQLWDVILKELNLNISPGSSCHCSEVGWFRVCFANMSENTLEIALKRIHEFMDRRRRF

[4] = biological target: T4, phosphorylated 6His-SUMO–ACS7 (phosphorylated by CDPK16 in vitro in advance) (Arabidopsis thaliana, UniProt Q9STR4 1-447, phosphorylated by CDPK16 in vitro; the sites that the paper identifies with fusion peptides are Ser216, Thr296 and Ser299); test: as above; settings: both partners purified
T4 construct: 1-aminocyclopropane-1-carboxylate synthase 7 (AtACS7), Arabidopsis thaliana; the full-length ACS7 recombinant protein; source: E. coli, purified (Ni-NTA), then phosphorylated by CDPK16 in vitro
T4 sequence (looked up): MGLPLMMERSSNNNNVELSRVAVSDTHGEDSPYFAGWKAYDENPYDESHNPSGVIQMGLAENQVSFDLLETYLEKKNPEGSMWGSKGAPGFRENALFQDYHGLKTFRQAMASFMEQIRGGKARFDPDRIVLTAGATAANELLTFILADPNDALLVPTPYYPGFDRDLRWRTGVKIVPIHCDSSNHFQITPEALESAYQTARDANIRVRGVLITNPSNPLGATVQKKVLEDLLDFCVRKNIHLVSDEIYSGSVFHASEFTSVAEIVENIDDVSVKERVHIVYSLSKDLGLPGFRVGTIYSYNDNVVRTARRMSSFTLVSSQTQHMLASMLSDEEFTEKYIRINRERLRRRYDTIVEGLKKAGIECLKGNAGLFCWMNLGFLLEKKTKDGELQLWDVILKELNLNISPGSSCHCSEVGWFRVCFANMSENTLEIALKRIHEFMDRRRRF

KD (14-3-3ω): same; reference 9.29±1.99×10–9
Molecule: AtACS7 (ACS7, type III ACC synthase) (from UniProt Q9STR4) 6His-SUMO-ACS7 phosphorylated by CDPK16 in vitro

Molecule: Nc1ncnc2c1ncn2[C@@H]1O[C@H](COP(=O)(O)OP(=O)(O)OP(=O)(O)O)[C@@H](O)[C@H]1O [ATP]
in vitro kinase assay, 32P autoradiography [1]: CDPK16 can phosphorylate the recombinant protein 6His-SUMO–AtACS7 in vitro
in vitro kinase assay, 32P autoradiography [2]: autophosphorylation of the mutated recombinant protein (G-CDPK16-6His MT) was greatly reduced

Kd [3]: 9.29 nM
Kd [4]: 5.05 nM
B1: G-14-3-3ω recombinant protein (GST-tagged 14-3-3ω) (natural protein, Arabidopsis, UniProt Q01525 1-259, looked up)
chain: MASGREEFVYMAKLAEQAERYEEMVEFMEKVSAAVDGDELTVEERNLLSVAYKNVIGARRASWRIISSIEQKEESRGNDDHVTAIREYRSKIETELSGICDGILKLLDSRLIPAAASGDSKVFYLKMKGDYHRYLAEFKTGQERKDAAEHTLAAYKSAQDIANAELAPTHPIRLGLALNFSVFYYEILNSPDRACNLAKQAFDEAIAELDTLGEESYKDSTLIMQLLRDNLTLWTSDMQDDAADEIKEAAAPKPTEEQQ
notes: 14-3-3ω (14-3-3 omega), Arabidopsis; The printed name puts G (GST) before 14-3-3ω; also called 14-3-3ω protein; source: E. coli, purified (GST beads, glutathione elution)
